B1: library; numbered along this chain (parent)
chain: MAAAAAAAAEQQSSNGPVKKSMREKAVERRSVNKEHNSNFKAGYIPIDEDRLHKTGLRGRKGNLAICVIILLFILAVINLIITLVIWAVIRIGPNGCDSMEFHESGLLRFKQVSDMGVIHPLYKSTVGGRRNENLVITGNNQPIVFQQGTTKLSVENNKTSITSDIGMQFFDPRTQNILFSTDYETHEFHLPSGVKSLNVQKASTERITSNATSDLNIKVDGRAIVRGNEGVFIMGKTIEFHMGGNMELKAENSIILNGSVMVSTTRLPSSSSGDQLGSGDWVRYKLCMCADGTLFKVQVTSQNMGCQISDNPCGNTH

Variants of: B1
Experiment: SGCB cell-surface expression functional score (HA stain, bin4 vs bin1, normalised to synonymous) (log10 ratio); higher = more cell-surface SGCB (functional)
Procedure: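 Deep mutational scan of full-length human SGCB (YFP-SGCB-HA, NNN codon sublibraries A-F) delivered by lentivirus at low MOI into ADG-HEK293 cells stably expressing SGCA, SGCD and SGCG. YFP-positive cells were stained for surface HA on unpermeabilized cells and FACS-sorted into bins. The functional score is log10(frequency in high bin 4 / frequency in low bin 1), normalised per chunk so that synonymous variants have mean 0 and SD 0.5. Scores are the median over codons and over duplicate biological replicates; scores below -0.5 are called non-functional. Scale: negative means deleterious.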

SGCB cell-surface expression functional score (log10), by site and new letter:
R23: M -0.27, I -0.31, P 0.31, Y 0.05, G 0.48, C 0.49, F 0.12, V 0.59, L 0.16, E 0.28, W -0.61, H 0.2, K -0.04, T 0.24, Q 0.33, A -0.06, D -0.13, S -0.16, N 0.03
K19: V -0.01, T -0.07, Y 0.34, S 0.21, P 0.42, E 0.33, I 0.14, N 0.14, W 0.32, F 0.01, R 0.18, C -0.11, Q -0.12, L 0.3, H 0.21, D 0.06, G 0.02, M 0.02, A 0.35
E24: K 0.09, L 0.02, G 0.08, F -0.05, P 0, T 0.2, W 0.05, H 0.46, Y -0.19, M -0.63, R -0.41, A 0, C -0.3, V 0.26, S 0.26, I 0.08, D 0.17, N 0.02, Q 0.01
K25: H -0.78, F -0.28, D 0.19, E 0.07, M -0.1, S 0.46, G -0.06, R -0.14, N 0.42, I 0.13, V 0.16, Q 0.5, A -0.05, L 0.18, C 0.39, P 0.05, W -0.25, Y -0.31, T 0.27
Q11: H 0.19, T -0.02, Y 0.17, G 0.64, K -0.03, M -0.03, D 0.04, R 0.14, V -0.03, E 0.17, N 0.3, S 0.39, L 0.04, P 0.41, I -0.5, F 0.07, C 0.65, A -0.04, W 0.61
Q12: M -0.09, P 0.06, G 0.12, H 0.03, R 0.29, W -0.29, C -0.19, T -0.35, F -0.27, N 0.01, Y -0.05, S 0.04, A 0.29, I -0.43, V -0.06, D -0.24, L 0.03, E 0, K 0.02
G16: K 0.11, D 0.57, P 0.37, H 0.08, L -0.08, I -0.02, Q 0.97, V 0.38, M 0.4, Y 0.23, S 0.37, A -0.31, F 0.52, R 0.04, E 0.38, W 0.23, T -0.27, N 0.14, C -0.06
K20: C 0.12, W 0.05, E 0.06, Y -0.59, V 0.32, N -0.16, A 0.08, L 0.12, H -0.13, P 0.39, M 0.39, I 0.09, R 0.2, D 0.22, F 0.1, Q 0.49, T 0, S 0.14, G -0.09
V27: G -0.22, T 0.04, S 0.13, H 0.05, M -0.41, C -0.05, R 0.06, P -0.17, A 0.22, D -0.2, E 0.04, N 0.45, Q 0.09, I 0.03, L 0.26, F 0.28, K 0.02
N15: H -0.07, T 0.14, I 0.04, P 0.34, R 0.19, M 0.35, F 0.28, L 0.32, K 0.05, D -0.15, W 0.29, Q 0.32, A 0.45, Y 0.13, V 0.31, S -0.02, E 0.33, G 0.04, C 0.19
A26: N -0.24, T 0.24, K 0.41, C -0.13, E 0.27, M 0.77, W 0.15, Q 0.19, V 0.53, F 0.47, R 0.15, G -0.21, I 0.06, S 0.09, H 0.39, P 0.09, D 0.34, L -0.05, Y -0.11
V18: N -0.03, H -0.54, Q 0.17, T 0.24, D 0.09, E 0.13, F 0, P 0.29, Y 0.14, W 0.55, M -0.08, C -0.07, I 0.24, A 0.26, S 0.21, L -0.01, K 0.16, G 0.04, R 0.23
P17: L -0.13, M -0.04, V -0.13, K 0.13, Y 0.31, S 0.12, R -0.12, N 0.1, E 0.21, T 0.31, I -0.28, W -0.2, C 0.46, F 0.2, G -0.18, A 0.2, Q -0.31, D 0.27, H 0.1
S13: L 0.02, A 0.2, H 0.13, E 0.25, R -0.07, C -0.36, G -0.08, M 0.29, F -0.45, W 0.8, Q 0.29, P 0.2, I -0.1, T -0.13, D 0.05, K 0.46, V 0.2, Y 0.05, N 0.08
S14: K 0.31, Q 0.46, R 0.04, W -0.06, H 0.09, I 0.03, T -0.01, P 0.22, C 0.04, D 0.3, M 0.08, E 0.27, F 0.19, N 0.61, L 0.1, A 0.14, G 0.43, V 0.21, Y -0.15
M22: W 0.08, F 0.1, Q 0.27, A 0.08, H 0.19, T 0.16, R 0.01, I -0.22, N 0.39, D -0.21, G -0.11, L 0.37, K 0.08, S 0.52, E 0.07, V 0.01, Y -0.14, P 0.17, C 0.56
S21: M -0.02, Y -0.19, K 0.75, F -0.32, H 0.03, N 0.32, A 0.2, L -0.08, I 0.3, W 0.3, G 0.23, R 0.08, D 0.33, T 0.07, C 0.5, Q -0.25, P 0.12, V 0.14, E -0.28
E10: S 0.03, T 0.27, P 0.05, V -0.1, Q 0.15, R 0.14, I 0.41, Y 0.17, W -0.16, M -0.03, K 0.18, N 0.39, L 0.02
